From PMC11850223
Where a chain is given by its changes, count along the chain named. Blank lines part the entries; values can stand above or below the molecule they belong to.

Tests used:
[1] = target: Hera_1–419_K51Q (ATPase-deficient variant) (Thermus thermophilus); assay: SEC
[2] = target: Hera_1–510_K51Q (ATPase-deficient variant) (Thermus thermophilus); assay: SEC
Hera [3] = target: T1, Hera (Thermus thermophilus, UniProt O07897 1-510); assay: fluorescence anisotropy
T1 sequence: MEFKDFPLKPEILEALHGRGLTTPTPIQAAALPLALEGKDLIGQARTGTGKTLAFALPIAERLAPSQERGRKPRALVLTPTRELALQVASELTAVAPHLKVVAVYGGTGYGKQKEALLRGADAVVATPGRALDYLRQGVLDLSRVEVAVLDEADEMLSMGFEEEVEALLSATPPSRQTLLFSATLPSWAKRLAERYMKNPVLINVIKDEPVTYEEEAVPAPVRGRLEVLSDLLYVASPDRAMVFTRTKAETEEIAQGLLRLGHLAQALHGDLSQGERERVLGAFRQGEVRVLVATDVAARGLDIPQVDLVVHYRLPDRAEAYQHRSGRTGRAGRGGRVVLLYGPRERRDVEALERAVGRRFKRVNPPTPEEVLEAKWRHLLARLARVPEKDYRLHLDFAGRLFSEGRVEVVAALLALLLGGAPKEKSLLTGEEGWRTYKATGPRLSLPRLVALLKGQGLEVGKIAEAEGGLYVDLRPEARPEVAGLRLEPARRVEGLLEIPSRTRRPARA

Hera_K51Q [4] = target: T2, Hera_K51Q (Thermus thermophilus, UniProt O07897 1-510, K51Q); assay: fluorescence anisotropy
T2 sequence: T1 sequence with K51Q

[5] = target: T3, Hera/Hera_K51Q heterodimer (Thermus thermophilus, UniProt O07897;O07897 1-510;1-510, K51Q); assay: fluorescence anisotropy
T3 sequence 1: T1 sequence
T3 sequence 2: T1 sequence with K51Q

Hera [6] = target: T1, Hera; assay: stopped-flow fluorescence
Hera_K51Q [7] = target: T2, Hera_K51Q; assay: stopped-flow fluorescence
[8] = target: T3, Hera/Hera_K51Q heterodimer; assay: stopped-flow fluorescence
[9] = target: T4, cis-heterodimer Hera/Hera_208-419 (Thermus thermophilus, UniProt O07897;O07897 1-510;208-419); assay: fluorescence anisotropy
T4 sequence 1: T1 sequence
T4 sequence 2: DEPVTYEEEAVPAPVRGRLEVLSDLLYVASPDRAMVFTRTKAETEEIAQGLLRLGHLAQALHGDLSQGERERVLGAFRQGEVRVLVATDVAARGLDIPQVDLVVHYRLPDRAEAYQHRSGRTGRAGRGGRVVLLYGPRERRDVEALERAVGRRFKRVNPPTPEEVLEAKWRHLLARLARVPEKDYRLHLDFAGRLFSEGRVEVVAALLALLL

[10] = target: T5, trans-heterodimer Hera_1-419/Hera_370-510 (Thermus thermophilus, UniProt O07897;O07897 1-419;370-510); assay: stopped-flow fluorescence
T5 sequence 1: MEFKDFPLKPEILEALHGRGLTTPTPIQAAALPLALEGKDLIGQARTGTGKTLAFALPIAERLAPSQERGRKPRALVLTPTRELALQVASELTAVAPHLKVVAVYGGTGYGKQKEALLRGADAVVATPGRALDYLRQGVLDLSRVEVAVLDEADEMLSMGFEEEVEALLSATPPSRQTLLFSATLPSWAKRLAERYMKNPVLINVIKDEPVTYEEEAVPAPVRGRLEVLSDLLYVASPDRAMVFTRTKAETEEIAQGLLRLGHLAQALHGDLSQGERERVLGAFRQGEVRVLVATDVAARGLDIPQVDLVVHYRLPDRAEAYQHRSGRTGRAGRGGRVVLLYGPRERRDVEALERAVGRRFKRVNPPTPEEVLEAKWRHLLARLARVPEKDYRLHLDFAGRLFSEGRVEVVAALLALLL
T5 sequence 2: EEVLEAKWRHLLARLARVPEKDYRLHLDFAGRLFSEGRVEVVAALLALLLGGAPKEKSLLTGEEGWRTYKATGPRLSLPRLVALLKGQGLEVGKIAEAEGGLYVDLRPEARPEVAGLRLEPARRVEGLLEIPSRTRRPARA

Hera_E115C_E227C = target: T6, Hera_E115C_E227C (Thermus thermophilus, UniProt O07897 1-510, E115C;E227C); assay: single-molecule FRET
T6 sequence: T1 sequence with E115C, E227C

[11] = target: T7, Hera_1-419_E115C_E227C/Hera_1-419 heterodimer (Thermus thermophilus, UniProt O07897;O07897 1-419;1-419, E115C;E227C); assay: single-molecule FRET
T7 sequence 1: T5 sequence 1 with E115C, E227C
T7 sequence 2: T5 sequence 1

[12] = target: T8, Hera/Hera_1-419 heterodimer, dye-labelled in cis (Thermus thermophilus, UniProt O07897;O07897 1-510;1-419, E115C;E227C); assay: single-molecule FRET
T8 sequence 1: T1 sequence with E115C, E227C
T8 sequence 2: T5 sequence 1

[13] = target: T9, Hera/Hera_1-419 heterodimer, dye-labelled in trans (Thermus thermophilus, UniProt O07897;O07897 1-510;1-419, E115C;E227C); assay: single-molecule FRET
T9 sequence 1: T1 sequence
T9 sequence 2: T5 sequence 1 with E115C, E227C

[14] = target: T4, cis-heterodimer Hera/Hera_208-419; assay: stopped-flow fluorescence
[15] = target: T10, Hera/Hera_1-419 heterodimer (Thermus thermophilus, UniProt O07897;O07897 1-510;1-419); assay: fluorescence anisotropy
T10 sequence 1: T1 sequence
T10 sequence 2: T5 sequence 1

[16] = target: T5, trans-heterodimer …; assay: fluorescence anisotropy

- stoichiometry N [1]: 2
Molecule: Hera_1–419_K51Q (ATPase-deficient variant) (domain or fragment)

- stoichiometry N [2]: 2
Molecule: Hera_1–510_K51Q (ATPase-deficient variant) (enzyme)

Molecule: GCAGGUCCCAAGGGUUGGGCUGUUCGCCCAUU (structured_RNA) [fl-32mer]
- Kd (Hera [3]): 60 ± 10 nM
- Kd (Hera_K51Q [4]): 170 ± 20 nM
- Kd [5]: 80 ± 20 nM
- Kd (Hera [6]): 490 ± 220 nM
- Kd (Hera_K51Q [7]): 1500 ± 700 nM
- Kd [8]: 130 ± 70 nM
- Kd [9]: 126 ± 9 nM
- Kd [10]: 7300 ± 1000 nM

Molecule: GCAGGUCCCAAGGGUUGGGCUGUUCGCCCAUU (structured_RNA) [32mer (smFRET)]
- binding result (Hera_E115C_E227C): binds
- binding result [11]: binds
- binding result [12]: binds
- binding result [13]: binds

B1: fl-32/9mer (structured_RNA)
RNA 1: GCAGGUCCCAAGGGUUGGGCUGUUCGCCCAUU
RNA 2: UUGGGACCU
- Kd [14]: 1800 ± 800 nM
- Kd (Hera [3]): 2000 ± 300 nM
- Kd (Hera_K51Q [4]): 2100 ± 400 nM
- Kd [5]: 2500 ± 400 nM
- Kd [15]: 3000 ± 300 nM
- Kd (Hera [6]): 3000 ± 1000 nM
- Kd [16]: 16000 ± 6000 nM
- Kd [9]: 1400 ± 500 nM
